Test: yeast display, Sf9 membrane polyspecificity reagent, FACS + sequencing; frameworks hold sequencing errors
Procedure, shortened: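 Polyreactivity labels are assigned by the sorting gate from which each nanobody was recovered. The gates were low and high (top ~1%), set on anti-HA fluorescence for expression and streptavidin fluorescence for reagent binding. Before sorting, galactose-induced (36–48 hours) yeast display cells were stained for 1 hour at 4 °C with 10% biotinylated, detergent-solubilized Sf9 membrane reagent.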

For “QDQLVESGGGLVQAGASLRLICAASGFIFPSYAMGWYRKAPGKERELVAAISWTGGTYYADSVKGRFTISRDNAKNTVYLQMNSLKPEDTAVYYGAVRYKRKGSGYRTNAYDYWGQGTQVSVSS”, which “polyreactivity (PSR sort gate)” value is on record?
The value was “high polyreactivity”.

For “QDQLVESGGGLVQAGASLRLSCADSGFTFTTNAMGWYRHAPGKERELVAAISFSGGTTYYADSVKGRFTISRDNAKNTVYLQMNRLKPEDTAVYYCAAQPGQAWWSTDHDDYWGQGTQVTVSS”, which “polyreactivity (PSR sort gate)” value is on record?
Its value is “low polyreactivity”.

With “QDQLVESGGGLVQAGCSLRLTCAASGSTFTSNAMGWYRQAPGKERYLVASISGSVGRTYYADSVKGRFTISRDNAKNTVYLQMNSLKPEDTAVYYCNDESRNLYSTQFDYWGQGTQVTVSS” as the sequence, how does the “polyreactivity (PSR sort gate)” value read?
The value was “low polyreactivity”.

Which “polyreactivity (PSR sort gate)” value does the source give for “QDQLVESGGGLVQAGGRLRLSCAASGYIFAYNAMGRDRQAPGKERELVAAISYSGGRTYYAYSVKGRFTISRYIAKNTVYLQMKSLKPEVTAVYYCAAPFRVGAGPATYDYWGQGTQVTVSS” here?
Its value is “high polyreactivity”.

For “QDQLVESGGGLVQAGGSHRLSCAASGLTLTDNALGWYRQAPGKERELVAAISQSGGRTSYADSVKGRFTISRDNAKNTVYLQMNSLKPEDTAVYYCNTRRGSVAKYGYWGQGTQVTVSS”, which “polyreactivity (PSR sort gate)” value is on record?
The value was “high polyreactivity”.

With “QDQLVESGGGLVQAGGSLGLRCAATGSTFTYYTMGWYRQAAGKERELVAAISRTTGSTYYADSVKGRFTISRDNAKNTVYLQMNSLKPEDTAVYYCAAQSYKILLYFIGTAGDGYWGQGTQVTVSS” as the sequence, how does the “polyreactivity (PSR sort gate)” value read?
The value was “low polyreactivity”.

For “QDQLVESGGGLVQAGGSLLLSCAASGSTFYDYVMGWYRQAPGKERELVADISSGGGTNYADSLKGRFTISRDNAKNTVYLQMNSLKPEDTAVYYCAAYRYFFWYEFVSWGQGTQVTVSS”, which “polyreactivity (PSR sort gate)” value is on record?
The value was “high polyreactivity”.

For “QDQLVESGGGLVQAGGSLPLSCAASANIFPLYAMGWYRQAPGKERELVAAITWSTTSTYYADSVKGRFTISRDNAKNTVYLQMNSLKPEDTAVYYCKAKTDESYYYSDYDYWVQGTQVTVSS”, which “polyreactivity (PSR sort gate)” value is on record?
The value was “low polyreactivity”.

For “QDQLVESGGGLVQAGGSLRISCAASGGTFKSYAMGWYREAPGKERELVATITRDGRTNYADSVKGRFTISRDNAKNTVYLQMNSLKPEDTAVYYCNADYWSVWIALEFTVDYWGQGTQVTVSS”, which “polyreactivity (PSR sort gate)” value is on record?
The value was “low polyreactivity”.

Which “polyreactivity (PSR sort gate)” value does the source give for “QDQLVESGGGLVQAGGSLRISCAASGSIFAWYAMAWYRESPGKERELVATITWSGGSTYYADSVKGRFTISRDNAKNTVYLQMNSLKPEDTAVYYCAAEVVGIWYDLWYQGDYWGQGTQVTVSS” here?
The value was “low polyreactivity”.

For “QDQLVESGGGLVQAGGSLRISCAASGSTFIYNAMGWYRQAPGKERELVATITGRGSTYYAYSVKGRFTISRDNAKNTVYLQLNSLKPEDTAVYYCAATIFNSFYWRYGYWGQGSQVTVSS”, which “polyreactivity (PSR sort gate)” value is on record?
Its value is “low polyreactivity”.

Which “polyreactivity (PSR sort gate)” value does the source give for “QDQLVESGGGLVQAGGSLRITCAASGSIFSWYTMGRYRQAPGKEMELVAAISGCGSRTYYADSVKGRFTISRDIEKNTVYLQMNSLKPEDTALYYCNTVNTWSVYYAYDYWGQGTQVTVSS” here?
Its value is “high polyreactivity”.

With “QDQLVESGGGLVQAGGSLRLICAASGLIFGFNTMACYRQAPGKESEFVAAINGSDGSTYADSVKGRFTISRDNAKNTVYLQMNSLKPEDTAVYYCAARYGSPKEYTYADMDYWGQGTQVTVSS” as the sequence, how does the “polyreactivity (PSR sort gate)” value read?
Its value is “low polyreactivity”.

Which “polyreactivity (PSR sort gate)” value does the source give for “QDQLVESGGGLVQAGGSLRLICAASGRTFGSYTMGWYRQAPGKERELVAAITSGGRTNYADSVKGRFTISRDNAKNTVYLQMNSLKPEDTAVYYCAAGWRGGRYRYFAYDYWGQGTQVTVSS” here?
Its value is “high polyreactivity”.

With “QDQLVESGGGLVQAGGSLRLICAASGSIFTFYDMGWYRQAAGNERELVAAISSGGSTTYADSVKGRFTISRDNAKNTVYLQMNSLKPEDTAFYYCAADSQPYLYPVEYDYWRQGTQVTVSS” as the sequence, how does the “polyreactivity (PSR sort gate)” value read?
The value was “low polyreactivity”.

Which “polyreactivity (PSR sort gate)” value does the source give for “QDQLVESGGGLVQAGGSLRLICAASGSNFGYYGMGWYRQAPGKEREFVAAITFSGGSTYYADSVKGRFTISRDNAKNTVYLQMNSLKPEDTAVYYFAAVYYGPYTYRHKMYYWGQGTQVTVSS” here?
Its value is “low polyreactivity”.

Which “polyreactivity (PSR sort gate)” value does the source give for “QDQLVESGGGLVQAGGSLRLSCAASAFTFGRNAKGWYRQATGKERELVATITWSGGSTYYADSVKGRFTISRDNAKNTVYLQMNSLKPEDTAVYYCAKQRRYWGQPSRAYEFNYWGQGTQVTVSS” here?
The value was “high polyreactivity”.

For “QDQLVESGGGLVQAGGSLRLSCAASAIIFYYYAMGSYRQAPGKERELVAAISSSGGRTRYADSVKGRVTISRDNAKNTVYLLMNRLKPEDTAVYYCAAEFIRGYGESYDYWGQGTQVTVSS”, which “polyreactivity (PSR sort gate)” value is on record?
Its value is “low polyreactivity”.

With “QDQLVESGGGLVQAGGSLRLSCAASALTFVRYAMGWYRQAPGKERELVAAISSGGSTNYADSVKGSFTISRDNAKNTVYLQMNSLKPEDSAVYYCAAVRYRYPHTMYYWGLGTQVTVSS” as the sequence, how does the “polyreactivity (PSR sort gate)” value read?
The value was “high polyreactivity”.

For “QDQLVESGGGLVQAGGSLRLSCAASCFTSLIYAMGWYRQAPGKERELVASITWGGGSTYADSVKGRFTISRDNAKNTVSLLMNSLKPEDTAVYYCASLYWWYPFNYWGQGTQVTVSS”, which “polyreactivity (PSR sort gate)” value is on record?
Its value is “low polyreactivity”.

With “QDQLVESGGGLVQAGGSLRLSCAASGFIFNKNAMGWYRQAPGKERELVAAITFGGGTTYYADSVKGRFTISRDNAKNTVYLQMNSLKPEDTAVYYCAKRYWRHPVFYLYDYWGQGTQVTVSS” as the sequence, how does the “polyreactivity (PSR sort gate)” value read?
Its value is “high polyreactivity”.

Which “polyreactivity (PSR sort gate)” value does the source give for “QDQLVESGGGLVQAGGSLRLSCAASGFIFRFNARGWYRQAPGKEREVVAVIRWSSGSTYYADSVKGRFTISRDNAKNTVYLQMNSLKPEDTAVYYCAAVDDDYSIVWYYYWGQGTQVTVSS” here?
Its value is “low polyreactivity”.

For “QDQLVESGGGLVQAGGSLRLSCAASGFIFYDNAMGWYRQAPGKERELVAAISAIGGSTYYADSVKGRFTISRDNAKNTVYLQMNSLKPEDTAVYYCAVPEILDPKYQNDYWGQGTQVTVSS”, which “polyreactivity (PSR sort gate)” value is on record?
Its value is “low polyreactivity”.

For “QDQLVESGGGLVQAGGSLRLSCAASGFMFSYYAMGWYRQAPGKARELVAAMTSNGGITYYADSVKGRITISRDKAKNTVYLQMNSLKPEDTAVYYCNAYYTSTSYDYWGQGTQVTVSS”, which “polyreactivity (PSR sort gate)” value is on record?
The value was “high polyreactivity”.

With “QDQLVESGGGLVQAGGSLRLSCAASGFNFRYYAMGWYRQAPGKERELVAAISSGGRTSYADSVKGRFTISRDNAKNTVYLQMNSLKPEDTAVYYCAADRWRGLFYYGNDYWGQGTQVTVSS” as the sequence, how does the “polyreactivity (PSR sort gate)” value read?
The value was “high polyreactivity”.

With “QDQLVESGGGLVQAGGSLRLSCAASGFTFQYYAMGWYRQAPGKERELVAAISRRGGRTDYADSVKGRFTISRDNAKNTVYLQINSLKPEDTEVYYCARDPGAFEYSGQGTQVTVSS” as the sequence, how does the “polyreactivity (PSR sort gate)” value read?
Its value is “high polyreactivity”.

Which “polyreactivity (PSR sort gate)” value does the source give for “QDQLVESGGGLVQAGGSLRLSCAASGFTFRSNAMGWYRQAPGKERELVAAISRTGGSTYYADSVKGRFTISRDNAKNTVYLQMNSLKPEETAVYYCNTVYGKSHYGQAMDSWGQGTQVTVSS” here?
The value was “high polyreactivity”.

For “QDQLVESGGGLVQAGGSLRLSCAASGFTFSYYTMGWYRHAPGKERELVAAISSTGVSTYYADSVKGRFTISRDNAKNTVYLQMNSLKPEDTAVYYCAADYYGVYEYYYWGQGTQVTVSS”, which “polyreactivity (PSR sort gate)” value is on record?
The value was “high polyreactivity”.

Which “polyreactivity (PSR sort gate)” value does the source give for “QDQLVESGGGLVQAGGSLRLSCAASGFTFYRNAMGWYRQAPGKERELVAAISRGGRTYYADSVKGRFTISRDNAKNTVYLQMNSLNPEDTAVYYCAVGYSGYVSSMDYWGQGTQVTVSS” here?
Its value is “high polyreactivity”.

For “QDQLVESGGGLVQAGGSLRLSCAASGGIIVSYAMGWYRQAPGKEMQLVAAITSGGGTSYSDSVKGRFTISRDNAKNTVYLQMNSLKPEDTAVYYCNADGYLAERFVIRLDEYRHYDYWGQGTQVTVSS”, which “polyreactivity (PSR sort gate)” value is on record?
Its value is “low polyreactivity”.

Which “polyreactivity (PSR sort gate)” value does the source give for “QDQLVESGGGLVQAGGSLRLSCAASGIIFDDNTLGWYRQAPGKERELVAAISSSGGSTYYADSVKGRFSISRDNAKNTVYLQMNSLKPEDTAVYYCAAAVYYTYPYIVYRNYPEFDYWGQGTQVTVSS” here?
The value was “low polyreactivity”.

With “QDQLVESGGGLVQAGGSLRLSCAASGIIFSIYAMGWYRQAPGKERELVAVISRSSGSTYYADSVKGRFTISRDNAKNSVYLQMNSLKPEDTAVYYCAARKNRAYGYWGQGTQVTVSS” as the sequence, how does the “polyreactivity (PSR sort gate)” value read?
The value was “high polyreactivity”.

With “QDQLVESGGGLVQAGGSLRLSCAASGIISYKNVMGWYRQAPGKERELDAAITSGGSTNYADSVKGRFTISRDNAKNTVYLQMNSLKPEDTAVYYCAARYYGSYGKQPRARYGYWGQGTQVTVSS” as the sequence, how does the “polyreactivity (PSR sort gate)” value read?
The value was “high polyreactivity”.

For “QDQLVESGGGLVQAGGSLRLSCAASGITFAGNAMGWYRQAPGKERELVAAISGSGGSTSYADSVKGRFTISRDNAKNTVYLQMNSLKPEDTAVYYCAAASRLYNWHALFGSWGQGTQVTVSS”, which “polyreactivity (PSR sort gate)” value is on record?
Its value is “low polyreactivity”.

With “QDQLVESGGGLVQAGGSLRLSCAASGITFFYYAMGWYRQAPGKERELVAAINWSGRTYYADSVKGRFTISRDNAKNTVYLQINSLKPEDTAVYYCAAVTYGPGVSVMDYWGQGTQVTVSS” as the sequence, how does the “polyreactivity (PSR sort gate)” value read?
Its value is “low polyreactivity”.

With “QDQLVESGGGLVQAGGSLRLSCAASGITFNAYVMGWYRQAPGKERELVAAISVSDDYTYYADSVKGRFTISRDNAKNTVYLQINSLKPEDTAVYYCAAEWWDVIAPYDYWGQGTQVTVSS” as the sequence, how does the “polyreactivity (PSR sort gate)” value read?
The value was “low polyreactivity”.

Which “polyreactivity (PSR sort gate)” value does the source give for “QDQLVESGGGLVQAGGSLRLSCAASGITFWYYAMGWYRQAPGKERELVAAISQSGGSTFYADSVKGRFTISRDNAKNTVYLQMNRLKPEVTAVYYCATGFFRYLAKFKTYRYDYWGQGTQVTVSS” here?
Its value is “high polyreactivity”.

For “QDQLVESGGGLVQAGGSLRLSCAASGITIWRYAMGWYRQAPGKERELVAAISWSGSRTYYADSVKGRFTISRDNAKNTVYLQMNSLKPEDTAVYYCAAAFDLWITITGFDYWGQGTQVTVSS”, which “polyreactivity (PSR sort gate)” value is on record?
Its value is “low polyreactivity”.

With “QDQLVESGGGLVQAGGSLRLSCAASGLIFARYAMGWYIQAPGKERELVAVISGRGGGTYYADSVKGRFTISRDNAKNTVYLQMNSLKPEDTAVYYCNKYGYKGGVGYDYWGQGTQVTVSS” as the sequence, how does the “polyreactivity (PSR sort gate)” value read?
The value was “high polyreactivity”.

For “QDQLVESGGGLVQAGGSLRLSCAASGLNFRFYAMGWYRTATGKERELVAAISSRGGSTYYAHSVKGRFTISRDNSKNTFYLQMISLKPEDTWVYYCAADYGDEYEYCGQGTQVTVSS”, which “polyreactivity (PSR sort gate)” value is on record?
The value was “high polyreactivity”.
